In patent publication US20120207760A1:

Tests used:
Settings in all cases: remark: other sources report otherwise
[1] = target: T1, recombinant homotrimeric HA, A/Japan/305/57 H2N2 (Influenza A virus A/Japan/305/57 (H2N2)); assay: trimeric HA microarray, transfection set 5
[2] = target: recombinant homotrimeric HA, A/Indonesia/5/05 H5N1 (Influenza A virus A/Indonesia/5/05 (H5N1)); assay: trimeric HA microarray, transfection set 5
[3] = target: T2, recombinant homotrimeric HA, A/Wisconsin/67/05 H3N2 (Influenza A virus A/Wisconsin/67/05 (H3N2)); assay: trimeric HA microarray, transfection set 5
[4] = target: recombinant homotrimeric HA, A/California/4/09 H1N1 (Influenza A virus A/California/4/09 (H1N1)); assay: trimeric HA microarray, transfection set 5
[5] = target: T3, recombinant homotrimeric HA, A/Solomon Islands/3/06 H1N1 (Influenza A virus A/Solomon Islands/3/06 (H1N1)); assay: trimeric HA microarray, transfection set 5
[6] = target: T4, recombinant homotrimeric HA, A/South Carolina/1/18 H1N1 (Influenza A virus A/South Carolina/1/18 (H1N1)); assay: trimeric HA microarray, transfection set 5
[7] = target: T5, recombinant homotrimeric HA, A/swine/Ontario/01911-2/99 H4N6 (Influenza A virus A/swine/Ontario/01911-2/99 (H4N6)); assay: trimeric HA microarray, transfection set 5
[8] = target: recombinant homotrimeric HA, A/Vietnam/1203/04 H5N1 (Influenza A virus A/Vietnam/1203/04 (H5N1)); assay: trimeric HA microarray, transfection set 5
[9] = target: recombinant soluble homotrimeric HA of A/northern shoveler/California/HKWF115/07 (Influenza A virus A/northern shoveler/California/HKWF115/2007); assay: microarray, BCC supernatant IgG, trimeric HA
[10] = target: recombinant soluble homotrimeric HA of A/chicken/Vietnam/NCVD-016/08 (H5N1) (Influenza A virus A/chicken/Vietnam/NCVD-016/08 (H5N1)); assay: microarray, BCC supernatant IgG, trimeric HA
[11] = target: recombinant homotrimeric HA, A/Hong Kong/1073/99 H9N2 (Influenza A virus A/Hong Kong/1073/99 (H9N2)); assay: trimeric HA microarray, transfection set 2
[12] = target: T1, recombinant homotrimeric HA, …; assay: trimeric HA microarray, transfection set 2
[13] = target: T2, recombinant homotrimeric HA, …; assay: trimeric HA microarray, transfection set 2
[14] = target: recombinant homotrimeric HA, A/Netherlands/219/03 H7N7 (Influenza A virus A/Netherlands/219/03 (H7N7)); assay: trimeric HA microarray, transfection set 2
[15] = target: T5, recombinant homotrimeric HA, …; assay: trimeric HA microarray, transfection set 2
[16] = target: T3, recombinant homotrimeric HA, A/Solomon …; assay: trimeric HA microarray, transfection set 2
[17] = target: T4, recombinant homotrimeric HA, A/South …; assay: trimeric HA microarray, transfection set 2

Binder	Trimeric HA Binding RLU [1] [RLU]	Trimeric HA Binding RLU [2] [RLU]	Trimeric HA Binding RLU [3] [RLU]	Trimeric HA Binding RLU [4] [RLU]	Trimeric HA Binding RLU [5] [RLU]	Trimeric HA Binding RLU [6] [RLU]	Trimeric HA Binding RLU [7] [RLU]	Trimeric HA Binding RLU [8] [RLU]	Trimeric HA Binding: RLU [9] [RLU]	Trimeric HA Binding: RLU [10] [RLU]	Trimeric HA Binding RLU [11] [RLU]	Trimeric HA Binding RLU [12] [RLU]	Trimeric HA Binding RLU [13] [RLU]	Trimeric HA Binding RLU [14] [RLU]	Trimeric HA Binding RLU [15] [RLU]	Trimeric HA Binding RLU [16] [RLU]	Trimeric HA Binding RLU [17] [RLU]
TCN-540 (5060_F05) (antibody, V domains shown) VH: QVQLVQSGGGVVQPGRSLRLSCAASGFTFSSYAMHWVRQAPGKGLEWVAIISYDGNDQYYTDSVKGRFTISRDSSKVYLQMHRLRPEDTAVYYCAKEFETSGYFHGSFDYWGQGILVTVSS VL: QSALTQPASVSGSPGQSITISCTGTSSDVGGYNYVSWYQQHPGKAPKLLIYEVTNWPSGVSNRFSGSKSGNTASLTISGLQAEDEADYYCSSYAGSSTWVFGGGTRVTVL	47900	2570	53000	984	1180	1360											
TCN-557 (5081_A04) (antibody, V domains shown) VH: QVQLVQSGAEVKKPGASVKVSCKASGHTFTGYYIHWVRQAPGQGLEWMGWINPDSGATSSAQNFQGRVTMTGDTSSSTAYMELSRLSFDDTAVYYCARVLFTSPFDFWGEGTLVTVSS VL: QAVVTQEPSLAVSPGGTVTLTCGSSTGAVTRGHYPYWFQQKPGQAPRALIYDSAGNRHSWTPARFSGSLLGGKAALTLSGAQPEDEAEYYCLLSYSGVWVFGGGTKLTVL	27300	22200	46100	44400	27000	44900	41500	21300									
TCN-546 (5089_L08) (antibody, V domains shown) VH: QVQLQQWGAGLLKPSETLSLTCGVYGGSLSDYYWSWIRQPPGKGLEWIGEINHSGGTNYNPSLKRRVTISVDTSKKQFSLKMNSVTAADTAVYYCARGTDPDTEVYCRAGNCAAFDFWGQGTLVTVSS VL: EIVLTQSPGTLSLSPGERATLSCRASHFVIGRAVAWYQQKPGQAPRLLIYGASSRATGIPDRFSGSGSGTDFTLTISRLETEDFAVFYCQHYGSSPRYAFGQGTKLEIK	1730	40900	28500	1080		955			1350								
TCN-554 (5277_M05) (antibody, V domains shown) VH: QVQLVQSGADLKKPGASVKVSCKASGYTFTDYYIHWVRQAPGQGLEWMGWINPESGDTKYAQKFQGRVTMTRDTSITTAYMELGRLRSDDTAVYYCARDVSTTWSWFAPWGQGTLVTVSS VL: DIVMTQSPDSLAVSLGERATINCRSSQSIFHNSNNENYLAWYQQKPGQPPKLLIYWASTRESGVPDRFSGSGSGTDFTLTISSLQAEDVAVYFCQQYYNAPLTFGGGTKVEIK	2620		25300		992	1260	5400										
TCN-552 (5249_I23) (antibody, V domains shown) VH: QVQVVQSGAEVKKPGSSVRVSCQASGGTFMNYAIIWVRRAPGQGLEWMGGIIPVFPTPNYAQMFQGRVTISTDESRSTSFLELTNLRYEDTAVYYCARRIYHGGNSGFDFWGQGTLVTVSS VL: EIVLTQSPATLSLSPGERATLSCRASQSVGNYLAWYQQKPGQAPRLLIYDSSNRAPGIPARFSGSGSGTDFTLTISSLAPEDFAVYYCQQRSKWPPMYSFGHGTKLEIK	52000	43400	18500	23500	48600	37400	9080	18500									
TCN-548 (5092_P01) (antibody, V domains shown) VH: QVQLQESGPGLVKPSETLSLTCTVSSGPMSDYYWSWIRQPPGKGLEWIGHVSVSHGGRTKSNPSVMSRVTISVETSKNQFSLKLTSVTAADTAVYYCARLNYYDRSGYHSPDGPSNNWFDPWGQGTLVTVSS VL: not shown	1020			818	750	1150			314	254							
TCN-558 (5248_H10b) (antibody, V domains shown) VH: QVQLVQSGSEVKKPGTSVKVSCTASGSVFTNYGISWVRQAPGQGLEWMGGIIPLFGAAKYAQKFQGRVTITADESTKTVYMELSRLTSKDTAIYFCAKAPRVYEYYFDQWGQGTPVTVSS VL: EIVMTQFPATLSVSPGERVTLSCRASQSVSNNLAWYQQKPGQPPRLLIYDASTRATGVPAKFSGTGSGTEFTLSISSLQSEDFAVYYCQQYHNWPPSYSFGLGTKLEIK	34400		26600	20200	36100	40700	10000										
TCN-553 (5261_C18) (antibody, V domains shown) VH: QVQVVQSGTEVKKPGSSVKVSCQTSGGRFMSYAITWVRQAPGQGLEWMGGIVPVFGTANYAQKFQGRVTITTDDSTRTAYMELSSLRSEDTAVYYCGFRYGSGYGFDSWGQGTLVTVSS VL: EIVLTQSPGTLSLSPGERATLSCRASQSVSSSYLAWYQKKPGQAPRLLIYGASTRATGIPDRFTGSGSGTDFTLSISRLEPEDFAVYYCQHFGTSVFTFGGGTKVEIK	39800	31200	25200	23300	49600	41300	12200	19200									
TCN-526 (5084_C17) (antibody, V domains shown) VH: EVLMVESGGGLVQPGGSVRLSCVASGFSFSSHWMTWVRQAPGKGLEWVANIEDDGGDKYYVDSVKGRFIISRDNAKNSVYLQMNSLRAEDTAVYFCARGSGSSDRSDYDPHYYYYLDVWGKGATVTVSS VL: DIQLTQSPSSLSASVGDRVTITCRASQSISRYLNWYQQKPGKAPKLLLFAASTLLDGVPSRFSGSGSGTDFTLTISSLQPEDFATYYCQRNHSPSWTFGQGTRVEIK											490	3590	27800	5660	3490	1470	2310
TCN-542 (5079_A16) (antibody, V domains shown) VH: QVQLQESGPGLVKPSQTLSLTCTVSGGSISSGNYYWNWVRQHPGKGLEWIGYIYYRGSTFYNPSLKSRVTISIDTSKNQFSLRLSSVTAADTAVYYCAKDTRSSLDNYQYGMDVWGQGTTVTVSS VL: QTVVTQEPSLTVSPGGTVTLTCASSTGAVTSSYFPNWFQQKPGQAPRPLIYSTTIRHSWTPARFSGSLLGGKAALTLSGVQPEDEADYYCLLYSGGDPVAFGGGTKLTVL	5180					1120	14300		900								
TCN-550 (5096_F06) (antibody, V domains shown) VH: QVQLQESGPGLVKPSETLSLTCTVSGASINSHYWSWIRQPPGKGLEWIGYVYYSGSTTYNPSLKSRVTLSVDTSKNQFSLNLSSVTAADTAFYYCARHPYDVLTGSGDWFDPWGQGTLVTVSS VL: SYVLTQAPSVSVAPGQTARITCGGNAIGSKKVHWYQHKAGQAPVLVVYDDTDRPSGIPERFSGSNSWSTATLTINRVEAGDEADYYCQVWDFTIDHVVFGGGTKLTVL	731	9000	37800	628	758	1010											
